Data: patent publication US20040229250A1 (SHIRE HUMAN GENETIC THERAPIES, published 2004)

Experiments:
[1] = molecular target: T1, 23mer peptide P23 (MTDFYVPVSLCTPSRAALLTGRS)
T1 chain: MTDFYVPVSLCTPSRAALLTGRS

[2] = molecular target: T2, Formylglycine Generating Enzyme (FGE) purified from bovine testis microsomes (reticuloplasm) (bovine, UniProt Q0P5L5 34-374, N-glycosylated (bound to Concanavalin A)); assay: affinity chromatography on peptide-derivatized Affigel 10, FGE activity from bovine testis
T2 construct: mature; Native enzyme at several stages of purification (microsome extract, MonoQ pool, ConA eluate); also called bovine FGE; FGE activity
T2 sequence (looked up): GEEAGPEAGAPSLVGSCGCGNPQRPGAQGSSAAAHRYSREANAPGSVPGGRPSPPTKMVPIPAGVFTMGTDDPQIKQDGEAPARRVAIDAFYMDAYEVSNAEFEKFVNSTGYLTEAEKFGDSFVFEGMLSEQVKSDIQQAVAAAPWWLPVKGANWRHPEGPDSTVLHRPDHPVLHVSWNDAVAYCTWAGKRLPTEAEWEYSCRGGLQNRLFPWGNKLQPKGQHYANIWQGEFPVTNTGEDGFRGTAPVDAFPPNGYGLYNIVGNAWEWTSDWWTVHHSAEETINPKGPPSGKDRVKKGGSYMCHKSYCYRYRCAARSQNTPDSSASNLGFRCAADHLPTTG
Excerpt: (§1) For purification of FGE the soluble fraction (reticuloplasm) of bovine testis microsomes served as the starting material. The specific activity of FGE was 10-20 times higher than that in reticuloplasm from bovine pancreas microsomes (Fey et al., J. Biol. Chem., 2001, 276:47021-47028). Purification of FGE was achieved by a combination of four chromatographic steps. The first two steps were chromatography on a MonoQ anion exchanger and on Concanavalin A-Sepharose. At pH 8 the FGE activity bound to MonoQ and was eluted at 50-165 mM NaCl with 60-90% recovery. When this fraction was mixed with Concanavalin A-Sepharose, FGE was bound. 30-40% of the starting activity could be eluted with 0.5 M a-methyl mannoside. The two final purification steps were chromatography on affinity matrices derivatized with 16mer peptides. The first affinity matrix was Affigel 10 substituted with a variant of the ASA65-80 peptide, in which residues Cys69, Pro7l and Arg73, critical for FGly formation, were scrambled (scrambled peptide […] -SEQ ID NO:34). […] Chromatography on the scrambled peptide affinity matrix removed peptide binding proteins including chaperones of the endoplasmic reticulum. The second affinity matrix was Affigel 10 substituted with a variant of the ASA65-80 peptide, in which the Cys69 was replaced by a serine (Ser69 peptide […]-SEQ ID NO:35).

[3] = molecular target: T2, Formylglycine Generating Enzyme (FGE) …; assay: affinity chromatography, peptide on Affigel 10, FGE from bovine testis
Excerpt: as §1

B1: Formylglycine Generating Enzyme (FGE) purified from bovine testis microsomes (reticuloplasm) (protein)
chain: GEEAGPEAGAPSLVGSCGCGNPQRPGAQGSSAAAHRYSREANAPGSVPGGRPSPPTKMVPIPAGVFTMGTDDPQIKQDGEAPARRVAIDAFYMDAYEVSNAEFEKFVNSTGYLTEAEKFGDSFVFEGMLSEQVKSDIQQAVAAAPWWLPVKGANWRHPEGPDSTVLHRPDHPVLHVSWNDAVAYCTWAGKRLPTEAEWEYSCRGGLQNRLFPWGNKLQPKGQHYANIWQGEFPVTNTGEDGFRGTAPVDAFPPNGYGLYNIVGNAWEWTSDWWTVHHSAEETINPKGPPSGKDRVKKGGSYMCHKSYCYRYRCAARSQNTPDSSASNLGFRCAADHLPTTG
For B1, the “conversion of P23 into a FGly containing derivative (MALDI-TOF)” value [1] was “converted up to 95% of the peptide into a FGly containing derivative” and the km [1] was “The km for P23 was 13 nM”.

B2: scrambled peptide PVSLPTRSCAALLTGR (peptide)
peptide: PVSLPTRSCAALLTGR
notes: also called scrambled oligopeptide; variant of the ASA65-80 peptide in which residues Cys69, Pro71 and Arg73 were scrambled
B2: no binding [2].

B3: wildtype ASA65-80 peptide (synthetic 16mer corresponding to arylsulfatase A residues 65-80) (peptide)
peptide: PVSLCTPSRAALLTGR
notes: They follow from P23 and from the Ser69 peptide, which is the Cys69 to Ser variant
B3: binds [3].

B4: Ser69 peptide PVSLSTPSRAALLTGR (peptide)
peptide: PVSLSTPSRAALLTGR
notes: also called Ser69 oligopeptide; variant of the ASA65-80 peptide in which Cys69 was replaced by a serine
B4: binds [3].
